In the nanobody polyreactivity screen of Harvey et al. (2022):

Assay: yeast display, Sf9 membrane polyspecificity reagent, FACS + sequencing; frameworks hold sequencing errors
Procedure, shortened: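 Galactose induction of a Saccharomyces cerevisiae BJ5465 synthetic nanobody display library ran 36–48 hours. The cells were then stained for 1 hour at 4 °C with 10% biotinylated, detergent-solubilized Sf9 membrane reagent, pulled down on streptavidin microbeads and FACS-sorted into low and high (top ~1%) gates on expression and reagent-binding fluorescence. Labels for polyreactivity follow the gate of origin.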

Sequence	polyreactivity (PSR sort gate)
QVQLVESGGGLVQAGGSLRLSCAASGSIFYYNAMGWYRQAPGKERELDANISWNGASTYYADSVKGRFTISRDNAKNSVYLQMLSLKPEDTAVYYCATAGKGDPPWLPSEVTDYYYWGQGTQVTVSL	low polyreactivity
QVQLVESGGGLVQAGGSLRLSCAASGSIFYYNAMGWYRQAPGKERELVAAITSSGGSTYADSVKGRFSISRDNAKNTVYLQMKSLKPEDTAVYYCNADGGYSYESTDHYGYEYWGQGTQVTVSS	low polyreactivity
QVQLVESGGGLVQAGGSLRLSCAASGSIFYYNAMGWYRQAPGKERELVATITSGGSTYYADSVKGRFTISRDNAKNTVYLQMNSLKPEDTAVYYCAPRSQSIRYTYIRSYYWGQGTQVTVSS	low polyreactivity
QVQLVESGGGLVQAGGSLRLSCAASGSIFYYNAMGWYSQAPGKERELVAAITGSGGSTYYADSVKGRFTISRDNAKNTVYLQMNSLKPEDTAVYYCAADYSLYGWWFRNDYWGQGTQVTVSS	low polyreactivity
QVQLVESGGGLVQAGGSLRLSCAASGSIFYYNDRGWSRQAPGKDRELVATIRSGGNTNYADSVKGRFTISRDIAKNTVYLQMNSLKPEDSAVYYCTARGAYHGYRYDSWGQGTQVTVSS	low polyreactivity
QVQLVESGGGLVQAGGSLRLSCAASGSIFYYNTMGWYRQAPGKERELVAAIRSSSGRTYYADSVKGRFTISRDNAKNTVYLQMNSLKPEDTAVYYCATVHSYTIQRYDYWGQGTQVTVSS	high polyreactivity
QVQLVESGGGLVQAGGSLRLSCAASGSIFYYYAMGWSRQAPGKEREFVAAIRESGGSTYYADSVKGSFTISRDNAKNTVYLQMNSLKAEDTAVYYCAVRRPRRNYNYPYDYWGQGTQVTVSS	low polyreactivity
QVQLVESGGGLVQAGGSLRLSCAASGSIFYYYAMGWYRQAPGKERELVAAIDASGGSTYYADSVKGRFTISRDNAKNTVYLQMNSLKPEDTAVYYCATRSPRLSRHRRYYSWGQGTQVTVSS	high polyreactivity
QVQLVESGGGLVQAGGSLRLSCAASGSIFYYYAMGWYRQAPGKERELVAAISSGGVRTYYADSVKGRFTISRDNAKNTVYLQMKSLKPEDTAVYYCAKDVHSGVTLIHERYYWGQGTQVTVSS	low polyreactivity
QVQLVESGGGLVQAGGSLRLSCAASGSIFYYYAMGWYRQAPGKERELVAAISYGGGSTYYADSVKGRFTISRDNAKNTVYLQMNSLKPEDTAVYYCAVQEVVGWYLYDYWGQGTQVTVSS	high polyreactivity
QVQLVESGGGLVQAGGSLRLSCAASGSIFYYYAMGWYRQAPGKERELVASISTDGSTYADSVKGRFTISRDNAKNTVYLQMNSLKPEDTAVYYCNADTRGEYTYVSWYDYWGQGTQVTVSS	low polyreactivity
QVQLVESGGGLVQAGGSLRLSCAASGSIFYYYTMGWYRAAPGKERELVAGISRSGDRTYYADSVKGRFTISRDNAKNTVYLQMNSLKPEVTAVYYCATRWSSARMDYWGQGTQVTVSS	high polyreactivity
QVQLVESGGGLVQAGGSLRLSCAASGSIFYYYTMGWYRPAPGKERELVASITGGGSTYYADSVKGRFTISRDNAKNTVYLQMNSLKPDDTAVYYCAAYRYGVTNAYGYWGQGTQVTVSS	high polyreactivity
QVQLVESGGGLVQAGGSLRLSCAASGSIIAINAMGWYRQAPGKERDLVAAISWNTGTTYYADSVKGRFTISRDNAKNTVYLQMNSLKPEDTAVYYCAADLWRWESLYKIWLPQYDYWGQGTQVTVSS	high polyreactivity
QVQLVESGGGLVQAGGSLRLSCAASGSIIAYYGMGWYRQAPGKESELVAAITSDASTYYADSVKWRFTISRDNAKKTDYLQMNSLKPVDTAVYYCYAYSYYYVYGYDMGYWGQGTQVTVSS	low polyreactivity
QVQLVESGGGLVQAGGSLRLSCAASGSIICVNAMGWYRQATGKERELVAAISSTGGSTYYADSVKGRFTISRDNAKNTVYLQMNSLKPEDTAVYYCNTDYSKSIGDGYAGFDYWGQGTQVTVSS	low polyreactivity

Sequence	polyreactivity (PSR sort gate)
QVQLVESGGGLVQAGGSLRLSCAASGSIIDQYVMGWYRQAPGKERELVADISIRGGSTYYADSVKGRFTISRDNAKNTVYFQMNSLKPEDTAVYYCNADEWWGYPWEEDDYWGQGTQVTVSS	low polyreactivity
QVQLVESGGGLVQAGGSLRLSCAASGSIIGDNTKGWYRQAPGKERELVAAISWRGGSTYYADSVKGRFTISLDNAKNTVFLQMNSLKPEDTAVYYCIGGPGGYDYWGQGSQVTVSS	low polyreactivity
QVQLVESGGGLVQAGGSLRLSCAASGSIIGGNAMGWYRQAPGKERELVAAIRSGGRTNYADSVKGRFTISRDNAKNTVYLQMNSLKPEDTAVYYCAADYYLGGGYWGQGTQVTVSS	low polyreactivity
QVQLVESGGGLVQAGGSLRLSCAASGSIIGRYTMGWYRQAPGKERELVAAINRSGGSTSYADSVKGRFTISRDNAKNTVYLQMNSLKPEDTAVYYCNRARSVPQFYGTYGFGYDYWGQGTQVTVSS	low polyreactivity
QVQLVESGGGLVQAGGSLRLSCAASGSIIGVNAMGWYRQAPGKERELVAAISSTGGSTYYADSVKGRFTLSRDNAKNTVYLQMNSLKPEDTAVYSCNTDYSKSIGDGYAGFDYWGQGTQVTVSS	low polyreactivity
QVQLVESGGGLVQAGGSLRLSCAASGSIIGYNTMGWYRQAPGKERELVAAISYSSGSTHYADSVKGRFTISRDNAKNTVYLQMNSLKPEDTAVYYCNTVRRWSFGYWGQGTQVTVSS	low polyreactivity
QVQLVESGGGLVQAGGSLRLSCAASGSIIGYYAMGWYRQAPGKECEFVAAITRSGARTYYADSLKGRFTISRDNAKNTVYLQMNSLKPEDTAVYYCAAGAYYRYTIEYDYWGQGTQVTVSS	high polyreactivity
QVQLVESGGGLVQAGGSLRLSCAASGSIIKAYAMGWYREAAGKERELVATITRSGVSTYYADSVNGRFTISRDNAKNTVYLQMKSLKPEDTAVYYCNRTGYVRFYITQQRGYFRYDYWGQGTQVTVSS	low polyreactivity
QVQLVESGGGLVQAGGSLRLSCAASGSIIKPYDMGWYRQAPGKERELVAAIRSSGGRTNYADSVKGRFTISRDNAKNTVYLQMNSLKPEDTAVYYCAAGYVSYWYYRYDYWGQGTQVTVSS	high polyreactivity
QVQLVESGGGLVQAGGSLRLSCAASGSIIKRNAMGWSIQAPGKERELVASISSGGTYYADSVKGRFTISRDNAKNTVYLQMNSLKPEDSAVYYCATDRGVIYRGISGYIHYDYWGQGTQVTGSS	low polyreactivity
QVQLVESGGGLVQAGGSLRLSCAASGSIILPNTMGWYRQAPGKERELVASISWNGGRTYYADSVKGRFTISRDNAKNTVYLQMNSLKPEDTAVYYCNADFRYPRVRYDYWGQGTQVTVSS	low polyreactivity
QVQLVESGGGLVQAGGSLRLSCAASGSIILQNAMGWYRQAPGKERELVAAITNGGSTNYADSVKGRFTISRDNAKNTVYLQMNSLKPEDTAVYYCAAYPLYTGSYDRGGYWGQGTQVTVSS	low polyreactivity
QVQLVESGGGLVQAGGSLRLSCAASGSIINRYAMGWYRQARGKERELVAAITQSGGRTYYADSVKGRFTISRDNAKNTVYLQMNSLKPEDTAVYYCAKAGWPGSYIYYRFRVGYDSWGQGTQVTVSS	high polyreactivity
QVQLVESGGGLVQAGGSLRLSCAASGSIIQGYAMGWYRQAPGKERELVAVITTSGGSTYYADSVKGRFTISRDNAKNTVYLQMNSLKPEDTAVYYCAVGLLVYSRTYIGQAYFRYNYWGQGTQVTVSS	high polyreactivity
QVQLVESGGGLVQAGGSLRLSCAASGSIIQGYAMGWYRQEPGKERELVAAITGDGTTNYADSVKGRFTISRDNAKNNVYLQMNSLKPEDTAVYYCSATGLFNKFHGYGYLGQGTQVTVSS	low polyreactivity
